Experiment [1] addresses T1, CD300c antigen (11832-H08H, Sino Biological) (human, UniProt Q08708 21-183).
T1 construct: Bought antigen; also called CD300c protein; CD300 antigen-like family member C
T1 sequence (looked up): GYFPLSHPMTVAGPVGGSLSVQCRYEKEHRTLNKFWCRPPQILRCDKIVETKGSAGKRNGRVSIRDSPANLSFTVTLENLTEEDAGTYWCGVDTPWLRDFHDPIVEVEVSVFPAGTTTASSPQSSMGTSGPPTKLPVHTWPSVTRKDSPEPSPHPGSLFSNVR
Kind of experiment: binding ELISA, plate coated with CD300c antigen (8 µg/mL), HRP anti-Fc IgG detection. Here is the method: In order to identify the antigen-binding ability of the anti-CD300c monoclonal antibodies produced in Example 1, binding ELISA was performed. Specifically, a CD300c antigen (11832-H08H, Sino Biological) or a CD300a antigen (12449-H08H, Sino Biological) in a coating buffer (0.1 M sodium carbonate, pH 9.0) was dispensed into an ELISA plate at a concentration of 8 μg/mL per well, followed by incubation at room temperature for 3 hours to allow the antigen to be bound to the plate. The unbound antigens were removed by washing three times using phosphate buffered saline-Tween 20 (PBST), and then 300 μL of PBST supplemented with 5% bovine serum albumin (BSA) was added to each well, followed by incubation at room temperature for 1 hour and then washing using PBST. Then, an anti-CD300c monoclonal antibody was diluted in quadruplicate and added thereto, followed by incubation for 1 hour at room temperature for antigen binding. After 1 hour, washing was performed three times using PBST to remove unbound anti-CD300c monoclonal antibody, and then 4 μg/mL of an antibody for detection (HRP conjugated anti-Fc IgG) was added, followed by incubation again at room temperature for 1 hour. Subsequently, the unbound antibody for detection was removed using PBST, and then TMB solution was added, followed by incubation for 10 minutes for development. Then, 2 N sulfuric acid solution was added to terminate the development reaction, and the absorbance was measured at 450 nm to identify the antibodies specifically binding to the CD300c antigen.
A general note: An ELISA detects its analyte on a solid surface through an enzyme-linked reagent.

For experiment [2], the target named is T2, CD300c on the surface of cells (human, UniProt Q08708 21-224).
T2 construct: whole, on cells; also called cellular antigen
T2 sequence (looked up): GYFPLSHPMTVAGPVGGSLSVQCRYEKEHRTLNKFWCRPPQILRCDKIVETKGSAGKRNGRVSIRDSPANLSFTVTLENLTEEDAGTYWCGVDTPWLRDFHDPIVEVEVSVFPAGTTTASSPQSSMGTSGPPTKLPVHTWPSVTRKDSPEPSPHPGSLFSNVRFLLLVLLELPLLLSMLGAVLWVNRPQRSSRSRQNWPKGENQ
Put plainly: flow cytometry (FACS binding) on 293T cells overexpressing CD300c, FITC anti-human IgG (H+L), MFI. Here is the method: (§1) In order to identify whether the anti-CD300c monoclonal antibody (CL7) recognizes a cellular antigen, FACS binding was performed.
(§2) Then, the cells were incubated with the anti-CD300c monoclonal antibody, which was serially diluted 3-fold starting from 10 μg/mL, in a CO₂ incubator for 30 minutes, and washed twice with FACS buffer. Then, the cells were incubated with FITC-conjugated anti-human IgG (H+L), which was diluted 1:100 in FACS buffer, in a CO₂ incubator for 30 minutes, and washed twice with FACS buffer. Subsequently, FITC signals were measured with a CytoFLEX instrument manufactured by Beckman Coulter, Inc., and then the MFI values were obtained using CytExpert program.

For experiment [3], the target named is T2, CD300c on the surface of cells. Kind of experiment: flow cytometry (FACS binding) on THP-1 cells overexpressing CD300c, FITC anti-human IgG (H+L), MFI. How it is done:
as §1, §2
A general note: A flow cytometer gives signals particle by particle.

B1: CL7 (antibody, V domains shown)
VH: EVQLLESGGGLVQPGGSLRLSCAASGFTFSRYAMSWVRQAPGKGLEWVSAISGSGGSTYYADSVKGRFTISRDNSKNTLYLQMNSLRAEDTAVYYCARSSQGIFDIWGQGTLVTVSS
VL: QSVLTQPPSASGTPGQRVTISCSGNNIGTRRVHWYQQLPDTAPKLLIYSKNNRPSGVPDRFSGSKSGTSASLAISGLRSEDEADYYCAAWDDSLSGPVFGGGTKLTVL
notes: detected with anti-human IgG (H+L) and anti-Fc IgG; also called anti-CD300c monoclonal antibody CL7; anti-CD300c monoclonal antibody (CL7)
As a reminder, the EC50 is the concentration giving half of the maximal effect. Take B1: the concentration giving a half-maximal response (EC50) turned out to be 0.047 µg/mL in experiment [1], 2.7 nM in experiment [2] and 2.6 nM in experiment [3].

(Values after patent publication US20240254220A1 (CENTRICSBIO, published 2024).)
